Laboratory results reported in the DeepSol protein solubility set.

experiment: soluble on expression in E. coli; label from the status in PepcDB or PDB records

Soluble on expression in E. coli, not soluble:
MGSDKIHHHHHHMLIEKELSELTVGHYVVKIIQQEGCFSLTAAGHIKSKAVINHLKSKNVHRVLIDDSKTLLSSSHEKSATVDAPSIVKNKELKHAKAIFDQSKSIQKKLFHDALSGSCLDLSPVVEVTNKSIDAIFNSPDSLACMLNIREKDEYLLEHSVAVSVYITIFSRYLDLERHIIEQLSIGAFLHDIGKIKIPDKILNKPGKLTVDEFTIMKTHANHSIAIIKETPGISALSLEVAALHHEKLDGSGYPFQVDGEDISQYGRMIAICDIFDALTATRVYKEGFTHGKAFSILRELAKQGQLDASLVDHFIKCVGVFPVGSLVQLKSNKLALVQERNDKDPINPQVHSFYSVKLNQFLNKQEIDLSGSEDSIVKSVRAEEFDLDMKQIVDMLLMEG
MGSDKIHHHHHHMLILYQFERTWGNPNLSHFCCKTETYLRMAGIEYAIKTTLPLFAPKGKLPYIKDGNIKLADSRFIIRHLKNRYKDLDEGLNPAEIALSLAMQRLIEEHLFWATMYTRWQYTDVNWQVNKKAIFDVLPPAIRDVAAVIYRYRIRRQIYGHGMGRHKPEEIFELGMQDIDALSACLGDKKYFLGDQPTTLDASAFGFLINTIACPIESPLKEYGLSKENLGDYIDRIKMQYYPDLQ
MGSDKIHHHHHHMLKHLDNITDCRSHINQEHDVIDICFLVLSAVISGAQSWSACHEFGTLELEWLRKYRPFTNGIPSQQSIGRIFRGVSKQSLLDALMSWVNEYRVNTGQSSIAIDGKVLKGAKASASSAALHMVTAYDTGSGLVFSAKSGASKKSELKLVQELLTCLDLKSELLTFDALHCQSQTLDYIAKEGGDCILQVKGNQPKLYEALQAQFTDYIENNPDAECFTETNKGHGRVEKRITFQCPLNLPAEIKMKWSQLKTLIAVERHRKVGNKTSIDTHFYVSSAVLTSEAFGRAIRAHWQTENNQHWLLDKLFQEDKQKMYDEDGASILAILRRWALNLVKLHPAKTSQTQKFNRACWSDDFREEIIFGTGQKV
MGSDKIHHHHHHMLKIGLLWHSTTSDNLGVGALTEAQISIINKAAVQAGVEVEYRIFGTNGNKDYFEGNPLIERGTNVSLKRILIGASDYPKKIRECDVVFDIGEGDSFADIYGFSRFLIQIVSKLVVLFQRKPLILSPQTIGPFESRFNLKVANNVMQRCTKIFVRDGLSFGYLQKNNLSVNAEEVIDVAFRLPFQRPSRDSSKVKIGLNVSGLLYNGGYTGKNQFGLSVNYPELTRSLLDQFTRIEGCEVWLVPHVLTTSFPIEDDVNVCVQLQELYPAAKLAPSFSSPSQAKSFISGMDFFLGARMHACIAAFSSGVPVVPLAYSRKFNGLFSALDYPYLGDCKVNTNEQIVGLVMDCFNSREQLKFAVEEGNKIAEKKLLRYEQYIAELLTRISNKKIVL
MGSDKIHHHHHHMLKIKTSNLRPGIKLGKDIYSYDSQLLLTSGSTITQEHLDSFARRNIEEVFILDESPRMKPERDFEDVYQDALEVVNSFMVGAMLGSPLDFQEIDKTVDLLREQAFDAIDLFRQMRLMKNKGEYLFTHSINVSLLCILIGRWLKCDRNTIRELGIAGLLHDLGKVFIENDILNKPGKLTDQEYEKIKKHTVLGYNFICQNPDMNLEVANAALMHHERVDGSGYPSGLKGQLNFYAAVVAVADVYDAITSAHSYADKRSPYSAAEILWQESFGKLDARITKVFYDKITNFYVGNKVLLSNKKEGIVIYVDPFQPTRPIVMVEDEFYNLALDRSITIRDIID
MGSDKIHHHHHHMLKPDRLRALAEALTRQNVMRLRDAAGLLGVSEMTVRRDIAGSPERFTYLGGYIVSATDVPNNAGYSLEEEKDHFAQAKAEASAVAAGLIGNNETLFIDCGTTLTTLARLIPLERHVTVVCYSLNVAEILRRKPNVRMILLGGVYVPSSDSFAGEESLEMLRRMGINKAFISAGGVDTARGVTCWNFHEVALKQAAMASAVERHLVVDQSKFGVVKAVRFSQVDDFDSIITEKGQQLRKRR
MGSDKIHHHHHHMLKVSDLTVGNNFVHNVSFEVNPGERVGIIGESGSGKSLTALSIMGLTDLPTTGQITFNGKPSATFRGTRIAMVFQEPMSALNPLMRIGRQIEEMMTLHGASKKDARARLKSLLIDVSLPERTASAYPHELSGGQRQRALIAMALANDPDLLICDEPTTALDVVVQKQIVDLLLRLTKERGTALLFITHDLGLIARTCERLLVMKSGETVERGDTEAILRSPAHSYTQQLLDASILDQPEIASDSGAPVVIDVEEASKSFKETTALHKVSLAVRKGDLLGIVGGSGSGKTTLLKLIAGLDKPTTGTVAVTGGVQMVFQDPQSSLNPRMKIKDIVAEPLLGWNAAEKTTRVAEVITQVGLSPDVLDRYPHEFSGGQRQRISIARALAIKPAILLADEPVSALDVSVRKQVLDLLQQLVEEYGITLVFVSHDLAVVRHLCTTVWVMEQGRVLEQGPIDSVYDHPQTEYTKELLDAVPRLSL
MGSDKIHHHHHHMLLDTNIFSSFEDYSDISGKLNELSRRLNPKSILLKHPKSIEYLNTLDEDTKRILLSKLAFCDLLNDYPSPINDLEFNTNVGYLKGTNNDLENNLLYAVYTNSVTYLITENRMIHQKSTKLGLKDRVLYLNEALDFFKEFYSIQKRQILPQIKQRPITKVDVDDQIFDSLREEYPEFNNWYNEKAHLGRECWCYIKESGKLGAVLIFNGEDFDVIKTDPLLPEKRRFKICTFKVDQVGYKLGELLLKKAFDYCIDNSITETYLTHFAKSEFDYLVNLITEYGFIDIGTNENGENVFFKDLNPTPNQLMFCDYKDIFKKYYPLFYDGNRVKKLVVPIRPQYHEKLFTDYVKRTSITLNEYFGDFIIEGNTIKKAYISHSPIKNLKKGDILLFYRSEDHKELTSLGVLEEFKTNLTSPEEIINMVGKRTVYSSREIEEIVKKPASVMIFTMHLHLKSPIPLTVLKENNILKGPPQTITEITHGAYEKIRDLGGINDNLTIH
MGSDKIHHHHHHMLLEIRHVTQYHYERPVRESLMELWMQPQKTARQRLVSFELDLNPAAQVFSYADSFGNAVYHFDVPQPHDNLTIIARSAVETESPGERPDQLDMGEWDRLRSEFVRGECFDFLRPHGFVRTTEALQTFINEHDLDALKRRDPLTAVRSLSETIYGAFEYQPGVTDADSPIDLTLSAGRGVCQDFAHIMLAVCRGWGVPARYVSGYLFTDRDAGDRSDPDATHAWVEVFLPSLRWVGFDPTNNMMAGERHVAVAVGRDYADVTPSRGVYKGDAESQLAVGVSVRRARAALAEPEFLRMARPSFAGGRRRHDTALREELHQQQQQQQ
MGSDKIHHHHHHMLLVENFDLRATMEQPTSFDEMWGTSGSLREPYREFHDWFGSEDPARLRKKQRDADKLFRLTGITFNVYGKAEAEERLIPFDIIPRIISGSEWARLSRGIEQRVRAINAFLYDIYHKQEIVKAGRIPKEMISRNDAFLPHMIGVEPPGGVYTHIVGIDLVRTGPGEFYVLEDNARTPSGVSYMLENRETMLQMFPELFSQNRVQPVSNYPTDLRRSLAASAPQSCTGKPVVAVLTPGIYNSAYFEHAFLADKMGVELVEGQDLRVIDGRVAMRTTRGYKPIDVLYRRVDDEFLDPLNFNPESALGVPGIMDVYRAGNITIANAPGTGIADDKAIYSYMPEIVEFYTGERPLLQNVQTWRCSEPDALAYVLDNLEDLVVKEVHGSGGYGMLIGPTASKKDLAAFRRKLKARPGNYIAQPTLALSTVPIFSRAGLSPRHVDLRPFVLCSPNKVHITPGGLTRVALKKGSLVVNSSQGGGTKDTWVLED
MGSDKIHHHHHHMLMPDAPSNTESLPTSVDLAGEYQASGVAEILDELDRELVGLKPVKQRIRETAALLLVERARRAMGLSHEPPSLHMSFTGNPGTGKTTVALRMANLLHRLGYIRKGHLVSVTRDDLVGQYIGHTAPKTKEILKKAMGGVLFIDEAYYLYRPDNERDYGQEAIEILLQVMENNRDDLVVILAGYADRMDRFFESNPGFRSRIAHHIDFPDYDNGELLSIAESMLSRQGYRFDSKASAVMSDYIARRRRQPHFANARSIRNALDRARLRQANRLFEESAGPVDAEQLSTITARDIAASRVFATVEPSHTETSP
MGSDKIHHHHHHMLNQQWLATFVTLVEVGHFTHTANKLFMTQPGVSQHIKKLEEQVGVHLLLRKGKRFELTEAGAILYQHARQYQLAETELLARLQTDNTYVGECRFGCSGAIASLLYPHFLERQIQYPELCVKIEAAPNQRIVSGILTNQLDMGIVTKRGEEADLTYQALGYAELSLVLPSQYLVDKIGIELLEQIGFIDHPDGDYYLQQVLQANFGGRAPMVNSRTGSPVKAHTMAFTHHIRRTGYVNQLSQILLPVAKGLGFTVLPLSTVNAFMPRESLWAVDLEQKVQESLYLVHKSTRPLPSRFDAFIEMAARLIAN
MGSDKIHHHHHHMLNSMRINAFVKFQFPDDLLLNSNLVYGMVNGSTYEREIRDILGGREQAVKKYASKIPEKSDAIMSLIESPFYVTRSAGSFGADVIAIRHDFSMVIEVKSSVRPYLMFSEGSGKKQEQANRINEMCTKAGIFLTYAYRIKNVQGDPWKLFVVESKPIGRFSMVYELIPKIAKTREGNYIMKWEDGLPLSSFIEIINKKII
MGSDKIHHHHHHMLRIFQGRPAVTIAAVLVAASVAGCAGKAKKPTLVYEERPVELLYSTGADRLDRGNWNEAVDYFREVERQHPYSEWSRRSILMTGYAHYMGNQYAEAIGDADRFISLYPGNPSAQYAFYLKAICYFEQIVDVNRDQAATEQALAALRDVVQRYPNTEYATDARLKIDMVNDQLAGKEMAIGRWYLKNGQTLAAIGRFKAVIERHQTTSHTPEALFRLVEAYLTIGLNEEAKRNGAVLGYNFPGDRWYVDAYRLLNDNGLRPAVEPLKAGAKRNALERILSKDKEATLAPPGERKAKKGLLGPLGM
MGSDKIHHHHHHMLRKSLILVLTGALTGLFSSISQGAETLSVATDAIAADFYPATQAGPQYGVLVLGGAEGGKPESLAKAIAHEGHPVLSLAYFNDKGLPQELEQIPLEYFAKAKVWLLNQANVRQDGLILVGWSKGAELSLLLASQDPLFSKVVAIAPSSVIWAGFLKDWTKTPSSSWTQGGKALDFVPFRPTGEVKGLLDLYSQSLQNAKAGQGRIPVENIKGDVVLLTGSNDEIWPSNLMAKALCQRMDTAGTQGSCTHINFEGLDHLLGEKFLDSNDAMHKQFMGFLEAE
MGSDKIHHHHHHMLTCNGSKTFQTFIKAVTDLINSNLLEDQMVCGIEKLLEELLEKKTWLPLEKQKANSAQYARHLLYEDPLNRFEVLALVWKDGQSTPLHDHDGTWGVEGVFTGRIMVQNFIQTKQLENSLVYLTHTGNLYLGEGETDKVIPPADCHILEIDDNESVVTIHVYGKRLEKFKVYVPTKEKNVYTCETKYIRYNS
MGSDKIHHHHHHMLTQLQCPSCGGRLLSNKEGRNSILCQSCKKEFSAREGVLCFVPDNVFTQLDNIDYDKHYSISDESSQQAFASLKGVLGNRLKNNYGVLLEIGAGTGGFTKGLLTNIKVNRAIVTDISPKMLSICRKRVLGESHLADDVIFATYSTGENILPSNSIDCIIGSFVLHHILDYKSFIRKSYDLLKKDGAFIFSEPCYKFHDALVLTMSEILETLIGEGDNSEVDLTRLSNWIHELHFNLKYVGDQDVLSGREDKHLFIRSEVENSAFDVGFELVEILPYGDPDAINQCLLSYLPQLDLSHIFLQKVSNLFDLYHIKYFGLIEREDAVPAYVFFFKKKMNLFSRLFKNV
